Measurements reported in patent publication US20240026343A1, “METHOD FOR SCREENING DIMERIZED CYCLIC PEPTIDE” (AJINOMOTO CO., INC., priority 2021, published 2024).

B1: aMD4dY-Jun-cys-N11-SecM-GS3: c-Met binding cyclic peptide-leucine zipper fusion for ribosome display, SEQ ID NO: 71 (protein)
chain: MAETCRQFNRRTHEVWNLDCGAAPAAPAPAAGGRIARLEEKVKTLKAQNSELASTANMLREQVAQLKQKVMNGCGGKDHLIHNHHKHEHAHAEHLFSTPVWISQAQGIRAGGSGSGS
modifications: aMD4dY-Jun-cys-N11-SecM-GS3; DISULFID 5..20 Disulfide bridge between Cys-5 and Cys-20
B2: EMP-Jun-cys-N11-SecM-GS3: EMP-leucine zipper fusion for ribosome display, SEQ ID NO: 87 (protein)
chain: MAETGGLYACHMGPMTWVCQPLRGAAPAAPAPAAGGRIARLEEKVKTLKAQNSELASTANMLREQVAQLKQKVMNGCGGKDHLIHNHHKHEHAHAEHLFSTPVWISQAQGIRAGGSGSGS
modifications: EMP-Jun-cys-N11-SecM-GS3; DISULFID 10..19 Disulfide bridge between Cys-10 and Cys-19

What was measured:
HGF-Erk-SRE pathway = assay: SRE luciferase reporter assay of cell-free translation products from ribosome display DNAs (Example 4); type: cell-based; conditions: HEK293E cells with SRE reporter; cell-free translation product at 25- to 625-fold dilution; HGF comparator; FIG. 16
Method: For cell-free translation, to 20 ng of each DNA, 2.5 μL of Solution I, 0.25 μL of Solution II, 0.5 μL of Solution III, and 1.75 μL of water were added, and the mixture was incubated at 37° C. for 6 hours to carry out the translation reaction.
Reporter assays were carried out as follows. To 25 μL of Opti-MEM medium (Thermo Fisher Scientific), 0.6 μL of Attractene Transfection Reagent (QIAGEN) was added and incubated at room temperature for 5 minutes. To the above mixed solution, a mixed solution of 25 μL of Opti-MEM and 1 μL of SRE reporter vector (QIAGEN) was added and incubated at room temperature for 20 minutes. This mixed solution was added to a 96-well plate, HEK293E cells were seeded thereon at 40,000 cells/well, and incubated overnight at 37° C. in a 5% CO2 incubator. After transfection, all the culture supernatant was removed, and 100 μL of Opti-MEM medium (evaluation basal medium), containing 0.5% FBS (Thermo Fisher Scientific), 1% non-essential amino acid solution (Thermo Fisher Scientific), and penicillin-streptomycin (Nacalai Tesque), was added thereto, which was cultured at 37° C. for 4 hours to starve the cells.
To the evaluation basal medium, 0 to 100 ng/mL HGF was added, or the above cell-free expression reaction solution was added at a 25- to 625-fold dilution with respect to the medium, and 100 μL of the evaluation basal medium was added to the cells. The cells were stimulated by culturing overnight at 37° C. in a 5% CO2 incubator.
Dual-Luciferase Reporter Assay System (Promega) was used for signal intensity detection. […] Activation of the HGF-Erk-SRE pathway was quantified by detecting Firefly luciferase luminescence from cell lysates with a plate reader. Subsequently, 50 μL of Glo & Stop reagent solution was added, and after 10 minutes, luminescence of Renilla luciferase, an internal standard, was detected to quantify the cell count. The signal activity of each sample was quantified as SRE activity=(luminescence intensity of Firefly luciferase)/(luminescence intensity of Renilla luciferase). […]

[1] = biological target: T1, Recombinant Human HGFR/c-MET Fc Chimera Protein (Homo sapiens, UniProt P08581); assay: Ribosome display enrichment on immobilized c-Met (Example 4); type: binding; conditions: starting DNA mix 1:50:50 (aMD4dY:TPO:EMP′ fusions); one round; FIGS. 15, 16
T1 construct: purchased R&D systems 8614-MT-100
T1 sequence (P08581 with tags, fused parts or gaps limits assumed): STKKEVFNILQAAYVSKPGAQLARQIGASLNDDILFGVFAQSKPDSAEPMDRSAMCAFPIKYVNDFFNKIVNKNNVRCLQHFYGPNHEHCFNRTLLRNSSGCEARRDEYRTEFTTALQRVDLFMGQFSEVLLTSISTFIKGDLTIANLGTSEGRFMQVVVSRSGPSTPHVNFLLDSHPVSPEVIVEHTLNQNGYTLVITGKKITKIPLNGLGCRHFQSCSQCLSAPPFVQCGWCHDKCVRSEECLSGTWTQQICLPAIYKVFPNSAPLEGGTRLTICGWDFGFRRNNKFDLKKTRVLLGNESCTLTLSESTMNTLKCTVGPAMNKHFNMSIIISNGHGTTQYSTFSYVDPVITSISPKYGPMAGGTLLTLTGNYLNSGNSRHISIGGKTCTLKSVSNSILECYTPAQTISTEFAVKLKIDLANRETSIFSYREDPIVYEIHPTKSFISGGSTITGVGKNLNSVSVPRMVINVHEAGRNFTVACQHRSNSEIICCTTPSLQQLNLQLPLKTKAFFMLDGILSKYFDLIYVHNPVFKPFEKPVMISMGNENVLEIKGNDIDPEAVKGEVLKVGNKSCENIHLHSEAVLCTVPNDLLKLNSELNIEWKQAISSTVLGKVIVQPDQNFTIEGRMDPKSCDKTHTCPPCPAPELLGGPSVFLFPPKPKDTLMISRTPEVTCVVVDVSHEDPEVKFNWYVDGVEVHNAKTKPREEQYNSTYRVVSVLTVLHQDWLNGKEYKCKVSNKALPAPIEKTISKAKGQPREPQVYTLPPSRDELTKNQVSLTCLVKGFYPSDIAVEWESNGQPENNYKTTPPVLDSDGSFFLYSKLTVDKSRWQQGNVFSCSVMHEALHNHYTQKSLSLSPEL
T1 sequence (P08581 25-307 limits assumed, change not shown): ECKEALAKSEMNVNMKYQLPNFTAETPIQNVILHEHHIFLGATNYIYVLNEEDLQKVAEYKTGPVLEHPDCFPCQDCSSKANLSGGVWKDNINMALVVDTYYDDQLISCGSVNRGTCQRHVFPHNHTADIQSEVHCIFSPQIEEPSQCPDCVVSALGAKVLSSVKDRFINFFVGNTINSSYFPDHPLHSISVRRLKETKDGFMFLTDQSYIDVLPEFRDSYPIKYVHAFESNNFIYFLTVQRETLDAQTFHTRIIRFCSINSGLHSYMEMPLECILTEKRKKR
Method: (§1) DNA transcription was carried out using T7 RNA polymerase. T7 RNA polymerase (Takara Bio, 2540A) and rNTPs (Promega, E6000) were used for transcription. 11 μL of ultrapure water, 2 μL of 10×T7 RNA polymerase buffer, 2 μL of 50 mM DTT, 2 μL of 25 mM rNTPs, 1 μL of T7 RNA polymerase, and 1 μL of DNA mix were mixed and reacted in a constant temperature bath at 37° C. for 6 hours. A 50 mM EDTA solution was then added. It was purified with RNA Clean & Concentrator 5 (ZYMO […], R1015) and made into a 2 μM mRNA mix.
PURExpress ΔRF1,2,3 kit was used for translation expression of the prepared library. 2 μL of solution A, 1.5 μL of solution B, 1 μL of mRNA mix, and 0.5 μL of ultrapure water were mixed and cultured in a 37° C. constant temperature bath for 2 hours. After the reaction, the reaction vessel was placed on ice, and 20 μL of ice-cold 1×TBSM-T buffer (50 mM Tris-HCl, 150 mM NaCl, 50 mM MgCl2, 0.05% Tween 20) was added to the formed ribosome-cyclic peptide-leucine zipper fusion-mRNA complex. This complex reaction solution was used in (4-7) below.
Immobilization of target molecules to magnetic beads was carried out. […]

[2] = biological target: T2, Recombinant Human Erythropoietin R Fc Chimera Protein (Homo sapiens, UniProt P19235); assay: Ribosome display enrichment on immobilized EPO receptor (Example 5); type: binding; conditions: starting DNA mix 1:50:50 (EMP:aMD4dY:TPO fusions); one round; FIGS. 17, 18
T2 construct: purchased R&D systems 963-ER-50
T2 sequence (P19235 with tags, fused parts or gaps limits assumed): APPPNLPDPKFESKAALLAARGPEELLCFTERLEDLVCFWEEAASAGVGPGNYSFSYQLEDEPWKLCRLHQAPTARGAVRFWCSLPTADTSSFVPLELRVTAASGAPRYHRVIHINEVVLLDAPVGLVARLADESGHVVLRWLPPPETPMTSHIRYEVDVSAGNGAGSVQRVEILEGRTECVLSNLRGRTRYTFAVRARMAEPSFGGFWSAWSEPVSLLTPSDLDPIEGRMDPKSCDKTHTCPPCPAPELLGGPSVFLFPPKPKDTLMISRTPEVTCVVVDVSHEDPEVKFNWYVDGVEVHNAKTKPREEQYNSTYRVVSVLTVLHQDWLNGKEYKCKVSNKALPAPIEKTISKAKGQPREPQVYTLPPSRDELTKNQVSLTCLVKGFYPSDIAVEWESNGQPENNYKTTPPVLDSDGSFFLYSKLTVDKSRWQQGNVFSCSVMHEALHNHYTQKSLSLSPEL
Method: The DNA sequence of EMP-Jun-cys-N11-SecM-GS3 was prepared by PCR. Two types of DNA sequences, aMD4dY-Jun-cys-N11-SecM-GS3 and TPO-Jun-cys-N11-SecM-GS3, prepared in Example 4 were used. A DNA mix was prepared by mixing DNAs, EMP-Jun-cys-N11-SecM-GS3, aMD4dY-Jun-cys-N11-SecM-GS3, and TPO-Jun-cys-N11-SecM-GS3, at a ratio of 1:50:50.
as §1, with “E6000) as well” for “E6000)”
PURExpress ΔRF1,2,3 kit was used for translation expression of the prepared library. 2 μL of solution A, 1.5 μL of solution B, 1 μL of mRNA mix, and 0.5 μL of ultrapure water were mixed and cultured in a 37° C. constant temperature bath for 2 hours. […]
Three types of DNAs, EMP-Jun-cys-N11-SecM-GS3, aMD4dY-Jun-cys-N11-SecM-GS3, and TPO-Jun-cys-N11-SecM-GS3, along with DNA mix and DNA mix2 were evaluated with 2100 Bioanalyzer (Agilent technologies). […]

| Molecule | relative SRE reporter activity (relative receptor activity) (HGF-Erk-SRE pathway) | enrichment in DNA mix2 after ribosome display against c-Met [1] | enrichment in DNA mix2 after ribosome display against EPO receptor [2] |
| --- | --- | --- | --- |
| B1 | showed activity | enriched |  |
| B2 |  |  | enriched |
